Assay results from patent publication US20210253718A1, “FRIZZLED5 PROTEIN-BINDING AGENTS” (Modmab Therapeutics Corporation, priority 2016, published 2021).
Where a chain is given by its changes, count along the chain named.

T1: FZD4 CRD (Homo sapiens, UniProt Q9ULV1)
T1 construct: E42-V167; GPI anchor signal (C); expressed in transfected cells; host or cells: CHO cells, lentiviral pLenti-puro
T1 sequence (Q9ULV1 42-167): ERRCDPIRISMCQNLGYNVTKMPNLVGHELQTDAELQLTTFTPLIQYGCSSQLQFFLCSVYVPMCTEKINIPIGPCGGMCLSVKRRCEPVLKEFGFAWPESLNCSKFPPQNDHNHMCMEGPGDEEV

T2: FZD3 CRD (Homo sapiens, UniProt Q9NPG1)
T2 construct: CRD of FZD1, FZD2, FZD3, FZD4, FZD5, FZD6, FZD7, FZD8, FZD9 or FZD10; GPI anchor signal (C); expressed in transfected cells; host or cells: CHO cells, lentiviral pLenti-puro
T2 sequence (Q9NPG1 23-136 limits assumed): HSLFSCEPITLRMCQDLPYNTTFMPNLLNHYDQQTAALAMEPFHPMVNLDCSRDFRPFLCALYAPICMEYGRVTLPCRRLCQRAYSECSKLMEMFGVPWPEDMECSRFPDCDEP

T3: FZD8 CRD (Homo sapiens, UniProt Q9H461)
T3 construct: K31-D155; GPI anchor signal (C); expressed in transfected cells; host or cells: CHO cells, lentiviral pLenti-puro
T3 sequence (Q9H461 31-155): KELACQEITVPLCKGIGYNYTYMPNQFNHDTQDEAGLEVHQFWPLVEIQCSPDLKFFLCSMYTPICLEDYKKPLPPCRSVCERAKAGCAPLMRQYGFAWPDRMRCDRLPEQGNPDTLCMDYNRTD

T4: FZD10 CRD (Homo sapiens, UniProt Q9ULW2)
T4 construct: 30-156; GPI anchor signal (C); expressed in transfected cells; host or cells: CHO cells, lentiviral pLenti-puro
T4 sequence (Q9ULW2 30-156): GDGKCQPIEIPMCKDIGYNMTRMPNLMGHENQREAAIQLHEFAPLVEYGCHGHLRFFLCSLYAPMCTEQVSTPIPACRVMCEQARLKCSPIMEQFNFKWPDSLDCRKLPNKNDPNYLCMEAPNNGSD

T5: FZD6 CRD (Homo sapiens, UniProt O60353)
T5 construct: S20-P146; GPI anchor signal (C); expressed in transfected cells; host or cells: CHO cells, lentiviral pLenti-puro
T5 sequence (O60353 20-146): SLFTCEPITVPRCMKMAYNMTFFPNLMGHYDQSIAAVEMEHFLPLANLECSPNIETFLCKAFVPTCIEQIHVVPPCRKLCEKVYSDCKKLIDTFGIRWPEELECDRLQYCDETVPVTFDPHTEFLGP

B1: Fab-2933: anti-FZD5 Fab with antibody variable region Fv-2933; CDR SEQ ID NOs: 35, 36, 72, 109, 148, 177 (antibody, V domains shown)
VH: EVQLVESGGGLVQPGGSLRLSCAASGFNLYSSYMHWVRQAPGKGLEWVASIYSSYGYTSYADSVKGRFTISADTSKNTAYLQMNSLRAEDTAVYYCARTVRGSKKPYFSGWAMDYWGQGTLVTVSS
VL: DIQMTQSPSSLSASVGDRVTITCRASQSVSSAVAWYQQKPGKAPKLLIYSASSLYSGVPSRFSGSRSGTDFTLTISSLQPEDFATYYCQQFWWYASWLFTFGQGTKVEIK
B2: Fab-2930: anti-FZD5 Fab with antibody variable region Fv-2930; CDR SEQ ID NOs: 35, 36, 69, 107, 145, 153 (antibody, V domains shown)
VH: EVQLVESGGGLVQPGGSLRLSCAASGFNLSYYYIHWVRQAPGKGLEWVASIYPYSGSTSYADSVKGRFTISADTSKNTAYLQMNSLRAEDTAVYYCARGALDYWGQGTLVTVSS
VL: DIQMTQSPSSLSASVGDRVTITCRASQSVSSAVAWYQQKPGKAPKLLIYSASSLYSGVPSRFSGSRSGTDFTLTISSLQPEDFATYYCQQWYGPYLITFGQGTKVEIK
B3: Fab-2932: anti-FZD5 Fab with antibody variable region Fv-2932; CDR SEQ ID NOs: 35, 36, 71, 108, 147, 153 (antibody, V domains shown)
VH: B2 VH with L29I, Y32S, I34M, P53S, Y54S, S55Y, G56S
VL: DIQMTQSPSSLSASVGDRVTITCRASQSVSSAVAWYQQKPGKAPKLLIYSASSLYSGVPSRFSGSRSGTDFTLTISSLQPEDFATYYCQQWYGSFALITFGQGTKVEIK
B4: Fab-2934: anti-FZD5 Fab with antibody variable region Fv-2934; CDR SEQ ID NOs: 35, 36, 73, 110, 149, 155 (antibody, V domains shown)
VH: B2 VH with L29I, Y32S, I34M, P53S, Y54S, L101I
VL: B2 VL with G93H, P94Y, Y95G

What follows are molecules tested on RWP1 cells (assay: Effect of anti-FZD5 Fabs on proliferation of pancreatic cancer cell lines (percent growth inhibition)). Details: Fab 2 μg/ml.
Assay type: cell-based, human

Row | Molecule | percent growth inhibition, RWP1 2 μg/ml [%]
1 | B1 | −21.16
2 | B2 | 17.91
3 | B3 | 32.22
4 | B4 | 7.90

These molecules were tested against T1, FZD4 CRD (assay: Immunofluorescence of anti-FZD5 Fab binding to CHO cells overexpressing Frizzled CRD). Details: not given.
Design: key: −: no binding; +: very weak binder; ++: weak binder; +++: good binder; ++++: very good binder
Summary of the method: (§1)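 Immunofluorescence readout of anti-FZD5 Fab staining on CHO cells ectopically overexpressing a single Frizzled cysteine-rich domain. Each CRD was fused to a myc tag and GPI anchor for plasma-membrane display; flow cytometry was run in parallel.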

Row | Immunofluorescence binding, Frizzled CRD overexpressed on CHO cells: FZD4 | Molecule
5 | +++ | B1
6 | − | B2
7 | − | B3
8 | − | B4

These molecules were tested against T2, FZD3 CRD in the same assay as above. Details: not given.
Design: key: −: no binding; +: very weak binder; ++: weak binder; +++: good binder; ++++: very good binder
Summary of the method: as §1

Row | Immunofluorescence binding, Frizzled CRD overexpressed on CHO cells: FZD3 | Molecule
9 | − | B1
10 | − | B2
11 | − | B3
12 | − | B4

What follows are molecules tested against T6, FZD7 CRD (Homo sapiens, UniProt O75084) in the same assay as above. Details: not given.
T6 construct: D45-S169; GPI anchor signal (C); expressed in transfected cells; host or cells: CHO cells, lentiviral pLenti-puro
Design: key: −: no binding; +: very weak binder; ++: weak binder; +++: good binder; ++++: very good binder
Summary of the method: as §1

Row | Immunofluorescence binding, Frizzled CRD overexpressed on CHO cells: FZD7 | Molecule
13 | + | B1
14 | + | B2
15 | ++ | B3
16 | − | B4

What follows are molecules tested against T3, FZD8 CRD in the same assay as above. Details: not given.
Design: key: −: no binding; +: very weak binder; ++: weak binder; +++: good binder; ++++: very good binder
Summary of the method: as §1

Row | Immunofluorescence binding, Frizzled CRD overexpressed on CHO cells: FZD8 | Molecule
17 | + | B1
18 | + | B2
19 | + | B3
20 | + | B4

What follows are molecules tested against T4, FZD10 CRD in the same assay as above. Details: not given.
Design: key: −: no binding; +: very weak binder; ++: weak binder; +++: good binder; ++++: very good binder
Summary of the method: as §1

Row | Immunofluorescence binding, Frizzled CRD overexpressed on CHO cells: FZD10 | Molecule
21 | − | B1
22 | − | B2
23 | − | B3
24 | − | B4

What follows are molecules tested against T5, FZD6 CRD in the same assay as above. Details: not given.
Design: key: −: no binding; +: very weak binder; ++: weak binder; +++: good binder; ++++: very good binder
Summary of the method: as §1

Row | Immunofluorescence binding, Frizzled CRD overexpressed on CHO cells: FZD6 | Molecule
25 | − | B1
26 | − | B2
27 | − | B3
28 | − | B4

What follows are molecules tested against T7, FZD2 CRD (Homo sapiens, UniProt Q14332) in the same assay as above. Details: not given.
T7 construct: D35-P161; GPI anchor signal (C); expressed in transfected cells; host or cells: CHO cells, lentiviral pLenti-puro
Design: key: −: no binding; +: very weak binder; ++: weak binder; +++: good binder; ++++: very good binder
Summary of the method: as §1

Row | Immunofluorescence binding, Frizzled CRD overexpressed on CHO cells: FZD2 | Molecule
29 | − | B1
30 | − | B2
31 | − | B3
32 | − | B4

These molecules were tested on ASPC-1 cells (assay: Effect of anti-FZD5 Fabs on proliferation of pancreatic cancer cell lines (percent growth inhibition)). Details: Fab 2 μg/ml.
Assay type: cell-based, human

Row | Molecule | percent growth inhibition, ASPC-1 2 μg/ml [%]
33 | B1 | −1.03
34 | B2 | 21.31
35 | B3 | 28.71
36 | B4 | 26.80
